In paper PMC5596348:

Assays:
[1] = molecular target: streptolysin O (Streptococcus pyogenes (group A Streptococcus), strain 854) (UniProt P0C0I3); assay: […], room temperature; […], pH 7.4; […]
[2] = molecular target: streptolysin O (Streptococcus pyogenes (group A Streptococcus), strain 854) (UniProt P0C0I3); assay: […]; PBS, 1 mM DTT, pH 7.4; room temperature
[3] = molecular target: streptolysin O (Streptococcus pyogenes (group A Streptococcus), strain 854) (UniProt P0C0I3); assay: BLI; […] (Octet RED384), […]; 20 mM Tris, 300 mM NaCl, 0.01% Tween 20, 1 mM DTT, pH 7.4; 30°C; […]

Substance | stoichiometry N [1] | stoichiometry N [2] | Kd [3] [µM]
NAD+-glycohydrolase, full-length (enzyme) | 1 | 1 | 2.58
190NADase, C-terminal glycohydrolase (catalytic) domain of NADase (domain or fragment) | – | – | 20.7
